Here are results for six molecules from patent US12421321B2, “Methods for treating fibrodysplasia ossificans progressiva” (Ashibio, Inc., priority 2023, dated 2025).

Data set [1] concerns the target T1, pro-MMP-9 (Homo sapiens, UniProt P14780, Q279R/R574P).
T1 construct: Human MMP-9 protein (without)
Conditions: cited from earlier work.

The nature of data set [2]: Pooled safety analysis of double-blind placebo-controlled trials, subcutaneous andecaliximab monotherapy, non-oncologic conditions. Format: in vivo, human. The conditions noted are these: for Participants with TEAE assessed as related to study drug: double-blind period. The procedure: A pooled analysis was conducted of all safety data from prior randomized, double-blind, placebo-controlled clinical trials where andecaliximab was administered subcutaneously as a monotherapy in non-oncologic conditions.
The pooled safety analysis consisted of 347 patients enrolled in double-blind (DB) placebo-controlled trials [age 18-78 yrs, median duration of treatment: DB=8 wk; DB+ open label extension (OLE)=17 wk; max 75 wk]. During the DB treatment period, treatment-emergent adverse event (TEAE) assessed as related to study drug occurred in 19 (17.8%) receiving 150 mg Q2W, 23 (20.2%) receiving 150 mg QW, 13 (22.4%) receiving 300 mg QW, none of those receiving 600 mg andecaliximab QW, and 20 participants (22.0%) received a placebo. Treatment-related TEAEs more common with andecaliximab compared with placebo (difference of >1 percentage point) were injection site erythema (2.1% versus 1.1%), headache (1.4% versus 0%), anemia (1.1% versus 0%), and injection site pain (1.1% versus 0%).

Data set [3] addresses T1, pro-MMP-9. The conditions noted are these: read-out: IC50, activation of MMP-9 from human pro-MMP-9; cited from earlier work.
For data set [4] the following is noted: human, in vivo; cited from earlier work.
Data set [5] deals with T2, MMP-9 (Homo sapiens, UniProt P14780). The conditions noted are these: cited from earlier work.
Target sequence in this assay (P14780 107-707 limits assumed): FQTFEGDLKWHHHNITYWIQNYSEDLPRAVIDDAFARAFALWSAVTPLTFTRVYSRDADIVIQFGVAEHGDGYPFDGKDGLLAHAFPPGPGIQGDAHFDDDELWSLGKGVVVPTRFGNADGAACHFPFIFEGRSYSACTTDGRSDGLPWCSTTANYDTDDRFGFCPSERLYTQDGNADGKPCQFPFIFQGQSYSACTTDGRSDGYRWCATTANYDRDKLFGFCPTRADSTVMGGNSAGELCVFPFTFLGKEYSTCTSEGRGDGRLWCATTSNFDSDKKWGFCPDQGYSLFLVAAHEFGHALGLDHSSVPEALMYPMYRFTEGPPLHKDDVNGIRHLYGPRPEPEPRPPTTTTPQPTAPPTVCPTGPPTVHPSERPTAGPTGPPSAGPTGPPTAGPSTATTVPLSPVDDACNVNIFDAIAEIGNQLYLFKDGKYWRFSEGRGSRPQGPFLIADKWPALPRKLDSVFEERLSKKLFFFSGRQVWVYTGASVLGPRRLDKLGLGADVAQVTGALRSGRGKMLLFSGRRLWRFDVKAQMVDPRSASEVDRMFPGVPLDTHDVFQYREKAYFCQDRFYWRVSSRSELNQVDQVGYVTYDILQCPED
Data set [6] relates to mouse model of multiple sclerosis. The conditions noted are these: cited from earlier work.
In data set [7] the target is T2, MMP-9. The conditions noted are these: read-out: Ki against MMP-9, cited from earlier work.
Target sequence in this assay (P14780 94-707): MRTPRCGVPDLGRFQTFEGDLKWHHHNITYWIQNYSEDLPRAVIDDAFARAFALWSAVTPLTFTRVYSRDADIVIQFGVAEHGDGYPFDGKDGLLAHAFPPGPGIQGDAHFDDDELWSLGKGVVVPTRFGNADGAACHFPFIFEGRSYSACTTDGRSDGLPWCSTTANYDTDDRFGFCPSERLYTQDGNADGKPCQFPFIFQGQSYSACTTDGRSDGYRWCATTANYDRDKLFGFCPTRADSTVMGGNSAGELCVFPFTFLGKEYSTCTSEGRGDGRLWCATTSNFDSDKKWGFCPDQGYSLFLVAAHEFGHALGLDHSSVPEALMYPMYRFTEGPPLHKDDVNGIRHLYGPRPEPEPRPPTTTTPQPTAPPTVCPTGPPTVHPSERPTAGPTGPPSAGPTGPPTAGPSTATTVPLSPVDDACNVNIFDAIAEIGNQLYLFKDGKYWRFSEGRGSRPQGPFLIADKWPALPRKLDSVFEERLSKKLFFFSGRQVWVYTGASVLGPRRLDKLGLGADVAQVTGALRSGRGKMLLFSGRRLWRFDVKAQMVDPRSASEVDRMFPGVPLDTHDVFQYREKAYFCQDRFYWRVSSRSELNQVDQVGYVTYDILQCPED
The test system of data set [8] is MDA-MB-435. The conditions noted are these: MDA-MB-435 mouse models; cited from earlier work.
The subject of data set [9] is fibrodysplasia ossificans progressiva. The conditions noted are these: in vivo; cited from earlier work.
The target of data set [10] is T1, pro-MMP-9. Conditions: cited from earlier work. This is another data set of the same source.
For data set [11] the following is noted: in vivo; cited from earlier work.
The subject of data set [12] is HT1080 cells. Conditions: cited from earlier work.
Data set [13] has as its system colorectal carcinoma xenograft. Conditions: surgical orthotopic xenograft model of colorectal carcinoma; cited from earlier work.
For data set [14], the system named is heterotopic ossification. The experiment in a line: Inducible FOP mouse model (Acvr1 R206H, tamoxifen plus cardiotoxin), HO volume by micro-CT. It counts as in vivo, mice. Conditions: 30 mg/kg loading, then 15 mg/kg IP; micro CT 14-24 days post-injury. The procedure:
FIG. 1 is a plot showing heterotopic ossification (HO) in an inducible mouse model of FOP having the R206H mutation (Acvr1[R206H]FIEx/+, Gt(ROSA26)SorCreERT2/+) treated with a control vehicle or AB0046 antibody (murine surrogate of andecaliximab that recapitulates MMP-9 inhibitory activity). The induction of disease occurred via tamoxifen (75 mg/kg×7 days, IP) and cardiotoxin injection on day 0 (10 μM, 100 μL) in the right gastrocnemius muscle. Dosing occurred at 30 mg/kg three days prior to injury (loading dose to address initial target-mediated drug disposition), then 15 mg/kg on days 0 and 3, or 15 mg/kg continuing twice per week after day […]. Ex vivo quantification of HO at the injury site was assessed using high-resolution micro CT and analyzed using 3D morphometry.
As described in Hatsell et al (Science Translational Medicine 2015), a knock-in transgenic model (Acvr1[R206H]FIEx/+; Gt(ROSA26)SorCreERT2/+) is used for these studies. […]
Faxitron images (medio-lateral view) of the collected entire right and left hindlimbs from all animals were performed (ex vivo) to document the presence of ectopic bone. Images were assessed qualitatively.
The effect of the anti-MMP-9 antibody, AB0046, on bone formation in the mouse model was evaluated ex vivo at the end of the in-life period. […]

Setting [15] is: pooled andecaliximab (placebo 0%).

Read-outs that look alike come from different tables or passages of the source.

T1 sequence (P14780 20-707 Q279R/R574P): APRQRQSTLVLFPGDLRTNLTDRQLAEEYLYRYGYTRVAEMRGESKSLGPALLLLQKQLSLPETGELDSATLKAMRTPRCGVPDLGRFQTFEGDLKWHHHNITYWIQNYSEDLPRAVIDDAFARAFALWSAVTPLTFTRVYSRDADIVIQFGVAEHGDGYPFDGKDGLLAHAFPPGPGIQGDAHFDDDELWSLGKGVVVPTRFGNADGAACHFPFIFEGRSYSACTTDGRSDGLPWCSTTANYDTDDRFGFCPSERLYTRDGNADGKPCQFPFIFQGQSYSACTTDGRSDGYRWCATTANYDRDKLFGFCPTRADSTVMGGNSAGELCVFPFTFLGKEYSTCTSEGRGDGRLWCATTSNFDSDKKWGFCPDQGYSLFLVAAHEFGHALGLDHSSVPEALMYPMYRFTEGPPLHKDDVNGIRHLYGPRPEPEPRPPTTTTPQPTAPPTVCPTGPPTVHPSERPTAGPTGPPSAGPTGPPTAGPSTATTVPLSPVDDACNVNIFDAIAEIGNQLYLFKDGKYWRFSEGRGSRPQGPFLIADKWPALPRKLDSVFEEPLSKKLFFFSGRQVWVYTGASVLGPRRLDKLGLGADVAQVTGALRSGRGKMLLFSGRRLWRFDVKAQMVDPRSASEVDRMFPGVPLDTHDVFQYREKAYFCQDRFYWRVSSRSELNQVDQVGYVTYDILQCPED

Turning to “andecaliximab: anti-MMP-9 recombinant chimeric, humanized antibody; heavy chain SEQ ID NO: 35, light chain SEQ ID NO: 36”, the Kd in data set [1] is 8 to 43 pM; in data set [5], 2000 to 6600 pM. Moreover, the “Participants with TEAE assessed as related to study drug” value in [2] (150 mg Q2W) is recorded as 17.8%; in [2] (150 mg QW), 20.2%; in [2] (300 mg QW), 22.4%; in data set [2] (600 mg QW) it was “none”. The “Treatment-related TEAE: anemia” value in data set [2] (setting [15]) was determined as 1.1%. Besides, in data set [2] (setting [15]), the “Treatment-related TEAE: headache” value is listed as 1.4%. Further, the “Treatment-related TEAE: injection site pain” value in data set [2] (setting [15]) turned out to be 1.1%. Also, in data set [2] (pooled andecaliximab (placebo 1.1%)), the “Treatment-related TEAE: injection site erythema” value is 2.1%. For the same molecule, in data set [3], the IC50 is 8.2 pM. In addition, in data set [4], the “Safety and tolerability in clinical trials” value was “safe and well-tolerated”.
“α1(V)GlyΨ{PO2H—CH2} Val [mep14, 32,Flp15, 33] THPI”: the “Clinical severity and weight loss” value in [6] is “effectively reduced clinical severity and weight loss”. Further, the Ki in data set [7] (25° Celsius) is 90600 pM; in data set [7] (37° Celsius), 980 pM.
In the case of `CCCc1cc(=O)nc(SCC(=O)Nc2ccc(OC(F)F)cc2)[nH]1` [N-[4-(difluoromethoxy)phenyl]-2-[(4-oxo-6-propyl-1H-pyrimidin-2-yl)sulfanyl]-acetamide], the “Tumor growth and metastasis” value in [8] is “reduced tumor growth and metastasis”.
`CC1(C)CCC(C)(C)c2cc(Cn3cccn3)c(/C=C/c3ccc(C(=O)O)cc3)cc21` [Palovarotene, palovarotene]: the “Effect in mouse model of fibrodysplasia ossificans progressiva” value in data set [9] is listed as “shown promise”.
Turning to `COc1ccccc1Nc1nc(-c2sc(NC(C)=O)nc2C)cs1` [JNJ0966, N-(2-((2-methoxyphenyl)amino)-4′-methyl-[4,5′-bithiazol]-2′yl) acetamide], in data set [10], the “Activation of pro-MMP-9” value is recorded as “prevents the activation of pro-MMP-9”. Moreover, the Blood-brain barrier penetration entry in data set [11] is on record as “penetrates the blood-brain barrier”. The “Migration of HT1080 cells” value in data set [12] is listed as “inhibits the migration of HT1080 cells”.

B1: AB0046: murine surrogate of andecaliximab that recapitulates MMP-9 inhibitory activity; SEQ ID NO: 33 and 32 (antibody)
heavy: MGWSSIILFLVATATGVHSQVQLQQPGSVLVRPGASVKLSCTASGYTFTSYWMNWVKQRPGQGLEWIGEIYPISGRTNYNEKFKVKATLTVDTSSSTAYMDLNSLTSEDSAVYYCARSRANWDDYWGQGTTLTVSSAKTTPPSVYPLAPGSAAQTNSMVTLGCLVKGYFPEPVTVTWNSGSLSSGVHTFPAVLQSDLYTLSSSVTVPSSTWPSETVTCNVAHPASSTKVDKKIVPRDCGCKPCICTVPEVSSVFIFPPKPKDVLTITLTPKVTCVVVDISKDDPEVQFSWFVDDVEVHTAQTQPREEQFNSTFRSVSELPIMHQDWLNGKEFKCRVNSAAFPAPIEKTISKTKGRPKAPQVYTIPPPKEQMAKDKVSLTCMITDFFPEDITVEWQWNGQPAENYKNTQPIMDTDGSYFVYSKLNVQKSNWEAGNTFTCSVLHEGLHNHHTEKSLSHSPGK
light: MSSAQFLGLLLLCFQGTRCDIQMTQTTSSLSASLGDRVTISCSASQGISNYLNWYQQKPDGTFKLLIYYTSILHSGVPSRFSGSGSGTDYSLTISNLEPEDIATYYCQQYGWLPRTFGGGTKLEIKRADAAPTVSIFPPSSEQLTSGGASVVCFLNNFYPKDINVKWKIDGSERQNGVLNSWTDQDSKDSTYSMSSTLTLTKDEYERHNSYTCEATHKTSTSPIVKSFNRNEC
Consider B1, for which the “Tumor growth and metastasis” value in [13] was “reduced tumor growth and metastasis”. Moreover, the “Heterotopic ossification (HO) at the injury site versus IgG control” value in data set [14] is given as “reduced HO in mice”.

In general, Kd refers to the equilibrium constant for the complex coming apart. By IC50 is commonly meant the concentration that gives 50% inhibition. Broadly, the Ki is the dissociation constant of the complex between target and ligand, obtained from inhibition or displacement.
